{
  "source": "paper PMC9935906",
  "about": "“Network of hotspot interactions cluster tau amyloid folds” (Nature Communications, 2023)",
  "key": {"[1]": {"molecular_target": "the molecule itself", "test": "ThT fluorescence aggregation assay + TEM; peptide alone, 200 µM in 1X PBS + 25 µM ThT, 37 °C, one week, endpoint ThT; fibrils checked by negative-stain TEM; self-assembly into fibrils"}, "[2]": {"molecular_target": "the molecule itself", "test": "ThT fluorescence aggregation assay + TEM; peptide alone, 1 mM in 1X PBS, neutral pH, one week at 37 °C with 900 RPM orbital shaking; endpoint ThT (15 µM) and negative-stain TEM; self-assembly into fibrils"}},
  "data": [
    {"protein": "VAIVYK (Acetyl and amide caps and the supplier (GenScript) are stated only for the ZipperDB-predicted hexapeptides; likely the same here; also called VQIVYK alanine mutant at position two; source: peptide)", "note": "[VAIVYK peptide]", "values": [
      {"measurement": "binding result", "setting": "[1]", "value": "binds"}
    ]},
    {"protein": "Ac-VQIVYK-NH2 (also called WT; source: synthetic peptide, bought: GenScript (≥95% purity))", "note": "[306VQIVYK311 peptide]", "values": [
      {"measurement": "binding result", "setting": "[2]", "value": "binds"}
    ]},
    {"protein": "VQIVAK (Acetyl and amide caps and the supplier (GenScript) are stated only for the ZipperDB-predicted hexapeptides; likely the same here; also called VQIVYK alanine mutant at position five; source: peptide)", "note": "[VQIVAK peptide]", "values": [
      {"measurement": "binding result", "setting": "[1]", "value": "binds"}
    ]},
    {"protein": "AQIVYK (Acetyl and amide caps and the supplier (GenScript) are stated only for the ZipperDB-predicted hexapeptides; likely the same here; also called VQIVYK alanine mutant at position one; source: peptide)", "note": "[AQIVYK peptide]", "values": [
      {"measurement": "binding result", "setting": "[1]", "value": "binds"}
    ]},
    {"protein": "Ac-VQIINK-NH2 (source: synthetic peptide, bought: GenScript (≥95% purity))", "note": "[275VQIINK280 peptide]", "values": [
      {"measurement": "binding result", "setting": "[2]", "value": "binds"}
    ]},
    {"protein": "VQIVYA (Acetyl and amide caps and the supplier (GenScript) are stated only for the ZipperDB-predicted hexapeptides; likely the same here; also called VQIVYK alanine mutant at position six; source: peptide)", "note": "[VQIVYA peptide]", "values": [
      {"measurement": "binding result", "setting": "[1]", "value": "binds"}
    ]}
  ]
}
